Patent publication US20230257444A1, “FUSION PROTEIN AND COMBINATIONS THEREOF” (Agency for Science, Technology and Research, priority 2020, published 2023)
Where two headings read alike, the source gives them in different places.

Parameters: species or system Balb/c mice
Settings: mouse, in vivo, ip
Protocol: 9 week old female Balb/c mice (InVivos, Singapore) were injected intraperitoneally with 0.5, 1, 2 or 4 mg hDectin1-Fc in groups of 3. Blood was sampled from the tail at time 0, 5, 10, 15, 30 mins and 1, 2, 4, 8 hours thereafter followed by daily sampling with Microvette® ([…], Nümbrecht, Germany) for 20 days. The respective blood samples were allowed to clot and centrifuged at 2000 g and the blood serum collected. The blood serum was diluted accordingly and the concentration of hDectin1-Fc was tested with Human IgG ELISA Antibody Pair Kit and developed with pNPP ELISA Substrate ([…] Technologies, Vancouver, Canada). The plates were read on PLATE reader and the data analysed for hDectin1-Fc pharmacokinetic parameters with open source Microsoft Excel add-in PKSolver (China Pharmaceutical University, Nanjing, China).
The pharmacokinetic parameters of hDectin1-Fc at different doses (4 mg, 2 mg, 1 mg and 0.5 mg) were determined by administering a single bolus intraperitoneal injection and sampling blood serum daily (FIG. 14). The daily concentration over 20 days was measured by ELISA and the results analysed with PKSolver to determine the pharmacokinetic parameters (Table 2). […] The lowest dose of 0.5 mg has a half-life and MRT lower than the 2 mg and 1 mg dose and its peak concentration (Cmax) is at 10 hours instead of 2 hours like the other doses. This observed outcome for the 0.5 mg dose is likely to arise from the slow transfer of hDectin1-Fc from the intraperitoneal space of the mouse into its bloodstream due to the lower concentration gradient and stronger role of excretion over distribution. The duration of the MRT and the half-life is a reflection of the presence of the protective effects of hDectin1-Fc in the body of the mice. The optimal dose with the longest MRT and half-life is approximately 1 mg. The general take away from the pharmacokinetic study are: (i) high doses result in rapid excretion of the drug, (ii) peak concentration occurs at 2 hours (iii) lower doses have a longer half-life and mean residence time appropriate for passive immunization.

hDectin1-Fc: soluble dimeric fusion protein: human Dectin-1 receptor polypeptide (aa 73-247) fused to human IgG1 Fc via hinge; SEQ ID NO: 5
Cl/F (0.5 mg): 0.0066 (μg)/(μg/ml)/h | Cmax (0.5 mg): 330 µg/mL | Tmax (0.5 mg): 10 h | Vz/F (0.5 mg): 0.9495 (μg)/(μg/ml) | t½ (0.5 mg): 100 h | Cl/F (1 mg): 0.0163 (μg)/(μg/ml)/h | Cmax (1 mg): 294 µg/mL | Tmax (1 mg): 2 h | Vz/F (1 mg): 3.4254 (μg)/(μg/ml) | t½ (1 mg): 146 h | Cl/F (2 mg): 0.0095 (μg)/(μg/ml)/h | Cmax (2 mg): 1039 µg/mL | Tmax (2 mg): 2 h | Vz/F (2 mg): 2.1489 (μg)/(μg/ml) | t½ (2 mg): 156 h | Cl/F (4 mg): 0.0314 (μg)/(μg/ml)/h | Tmax (4 mg): 2 h | Vz/F (4 mg): 3.5008 (μg)/(μg/ml) | t½ (4 mg): 77 h
